Data taken from patent US20220259318A1 (Hoffmann-La Roche, published 2022).
Several values for one entry are separate records, joined by “and”; a condition that tells them apart may be missing. Equal entries are not always repeated. Where two headings read alike, the source gives them in different places.

Assays:
human GPRC5D [1] = target: T1, human GPRC5D (human, UniProt Q9NZD1 1-345); test: cell-based or functional assay
human GPRC5D [2] = target: T1, human GPRC5D; test: flow cytometry on NCI-H929 cells; paragraph 550 says these values were falsely calculated by a factor of 10 (too low)
Description: To measure the binding to GPRC5D, we performed a flow cytometry-based binding assay on reported multiple myeloma cell lines (Lombardi et al., Molecular characterization of human multiple myeloma cell lines by integrative genomics: insights into the biology of the disease; Genes Chromosomes Cancer. 2007 March; 46(3):226-38). The cell line NCI-H929 (ATCC® CRL-9068) was cultured in RPMI 1640 with Glutamax medium (Gibco) supplemented with 10% FBS, 1× Penicillin/Streptomycin (Gibco), 1× Sodium Pyruvate (Gibco) and 50 μM beta-Mercaptoethanol (Gibco). Jurkat-NFAT reporter cells (a CD3-expressing human acute lymphatic leukemia reporter cell line with a NFAT promoter, GloResponse Jurkat NFAT-RE-luc2P, Promega #CS176501) were cultured in RPMI 1640, containing 2 g/l Glucose, 2 g/l NaHCO₃, 10% FCS, 25 mM HEPES, 2 mM L-Glutamine, 1×NEAA, 1× Sodium-pyruvate and 200 μg/ml Hygromycin B.
Flow cytometry acquisition was performed on a custom-designed BD Biosciences Fortessa and analyzed using BD Diva. EC50 values were calculated, using GraphPad Prism software.

human GPRC5D [3] = target: T1, human GPRC5D; test: cell-based or functional assay; remark: listed apart in the source
human GPRC5D [4] = target: T1, human GPRC5D; test: cell-based or functional assay; remark: listed apart in the source
human GPRC5D [5] = target: T1, human GPRC5D; test: cell ELISA, CHO hu GPRC5D (EC/IC50 rel)
Method in brief: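 Stably transfected CHO cells seeded overnight, then incubated 2 h at 4° C with antibody IgGs in 15-point 1:3 dilutions from 30 μg/ml. Cells fixed with 0.05% glutaraldehyde; binding detected with HRP anti-human Ig and TMB, absorbance at 370/492 nm.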

human GPRC5D [6] = target: T1, human GPRC5D; test: cell-based or functional assay; remark: listed apart in the source
human GPRC5D [7] = target: T1, human GPRC5D; test: cell-based or functional assay; remark: listed apart in the source
human GPRC5D [8] = target: T1, human GPRC5D; test: cell-based or functional assay; remark: listed apart in the source
human GPRC5D [9] = target: T1, human GPRC5D; test: cell-based or functional assay; remark: listed apart in the source

T1 sequence (Q9NZD1 whole entry): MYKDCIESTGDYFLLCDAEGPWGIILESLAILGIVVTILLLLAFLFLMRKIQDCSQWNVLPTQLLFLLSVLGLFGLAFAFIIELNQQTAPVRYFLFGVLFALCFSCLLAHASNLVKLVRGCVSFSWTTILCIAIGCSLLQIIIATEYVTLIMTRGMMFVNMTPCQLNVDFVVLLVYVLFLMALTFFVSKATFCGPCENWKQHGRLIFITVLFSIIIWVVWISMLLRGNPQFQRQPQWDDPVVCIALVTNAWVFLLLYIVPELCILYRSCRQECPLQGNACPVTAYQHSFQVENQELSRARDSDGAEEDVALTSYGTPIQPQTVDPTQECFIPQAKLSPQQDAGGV

B1: 5F11(VH1b + VL2a)-C122-TCB (P1AE6623) (bispecific antibody, human IgG1, kappa, L234A L235A)
light 1: DIVMTQSPLSLPVTPGEPASISCRSSKSLLHSNGITYVYWYLQKPGQSPQLLIYRMSNRASGVPDRFSGSGSGTDFTLKISRVEAEDVGVYHCGQLLENPYTFGQGTKLEIKRTVAAPSVFIFPPSDRKLKSGTASVVCLLNNFYPREAKVQWKVDNALQSGNSQESVTEQDSKDSTYSLSSTLTLSKADYEKHKVYACEVTHQGLSSPVTKSFNRGEC
light 2: EVQLLESGGGLVQPGGSLRLSCAASGFQFSSYAMNWVRQAPGKGLEWVSRIRSKYNNYATYYADSVKGRFTISRDDSKNTLYLQMNSLRAEDTAVYYCVRHTTFPSSYVSYYGYWGQGTLVTVSSASVAAPSVFIFPPSDEQLKSGTASVVCLLNNFYPREAKVQWKVDNALQSGNSQESVTEQDSKDSTYSLSSTLTLSKADYEKHKVYACEVTHQGLSSPVTKSFNRGEC
heavy 1: EVQLVESGGGVVQPGRSLRLSCAASGFSFSNYGMAWVRQAPGKGLEWVASISTGGGNTYYRDSVKGRFTISRDNAKNTLYLQMNSLRAEDTAVYYCTRHDRGGLYWGQGTMVTVSSASTKGPSVFPLAPSSKSTSGGTAALGCLVEDYFPEPVTVSWNSGALTSGVHTFPAVLQSSGLYSLSSVVTVPSSSLGTQTYICNVNHKPSNTKVDEKVEPKSCDKTHTCPPCPAPEAAGGPSVFLFPPKPKDTLMISRTPEVTCVVVDVSHEDPEVKFNWYVDGVEVHNAKTKPREEQYNSTYRVVSVLTVLHQDWLNGKEYKCKVSNKALGAPIEKTISKAKGQPREPQVCTLPPSRDELTKNQVSLSCAVKGFYPSDIAVEWESNGQPENNYKTTPPVLDSDGSFFLVSKLTVDKSRWQQGNVFSCSVMHEALHNHYTQKSLSLSPGK
heavy 2: not shown
notes: 2+1 TCB: LC1 (anti-GPRC5D), LC2 (anti-CD3 crossed), HC1 Fc hole, HC2 Fc knob
AUC, activation of Jurkat-NFAT reporter cells in presence of RPMI-8226 cells (human GPRC5D [1]): 778000 | EC50 (pM), activation of Jurkat-NFAT reporter cells in presence of RPMI-8226 cells (human GPRC5D [1]): 8.9 pM | EC50 (human GPRC5D [2]): 360 pM

B2: P1AE5744 (antibody, V domains shown)
VH: QVQLVESGGGVVQPGRSLRLSCAASGFSFSNYGMAWVRQAPGKGLEWVASISTGGGNTYYADSVKGRFTISRDNSKNTLYLQMNSLRAEDTAVYYCTRHDRGGLYWGQGTMVTVSS
VL: DIVMTQSPLSLPVTPGEPASISCRSSKSLLHSNGITYVYWYLQKPGQSPQVLIYRMSNLASGVPDRFSGSGSGTDFTLKISRVEAEDVGVYHCGQLLENPYTFGQGTKLEIK
notes: Humanized 5F11 IgG; PGLALA Fc implied by the CAR-J assay; also called 5F11_VH1c + 5F11_VL1a
CAR-J2 EC50 [ng/mL] (PGLALA-CAR-J activation, L363 target cells) (human GPRC5D [3]): 3.63 ng/mL | EC50 values of CAR-J activation (human GPRC5D [4]): 3.63 ng/mL | EC50 (human GPRC5D [5]): 0.0086 µg/mL and 0.06 nM

B3: P1AE5763 (antibody, V domains shown)
VH: EVQLVESGGGLVQPGGSLRLSCAASGFSFSNYGMAWVRQAPGKGLEWVASISTGGGNTYYADSVKGRFTISRDNAKNTLYLQMNSLRAEDTAVYYCTRHDRGGLYWGQGTMVTVSS
VL: DIVMTQSPDSLAVSLGERATINCKSSKSLLHSNGITYVYWYQQKPGQPPKLLIYRMSNLASGVPDRFSGSGSGTDFTLTISSLQAEDVAVYHCGQLLENPYTFGQGTKLEIK
notes: Humanized 5F11 IgG; PGLALA Fc implied by the CAR-J assay; also called 5F11_VH2d + 5F11_VL2b
CAR-J2 EC50 [ng/mL] (PGLALA-CAR-J activation, L363 target cells) (human GPRC5D [3]): 5.47 ng/mL | EC50 values of CAR-J activation (human GPRC5D [4]): 5.47 ng/mL | EC50 (human GPRC5D [5]): 0.006 µg/mL and 0.04 nM

B4: 5E11_P1AE5723 (antibody, V domains shown)
VH: EVQLLESGGGLVQPGGSLRLSCAASGFTFSKYAMAWVRQAPGKGLEWVASISTGGVNTYYADSVKGRFTISRDNSKNTLYLQMNSLRAEDTAVYYCATHTGDYFDYWGQGTMVTVSS
VL: EIVLTQSPGTLSLSPGERATLSCRASQSVSISGINLMNWYQQKPGQQPKLLIYHASILASGIPDRFSGSGSGTDFTLTISRLEPEDFAVYYCQQTRESPLTFGQGTRLEIK
notes: Humanized 5E11 IgG; PGLALA Fc implied by the CAR-J assay; also called 5E11_VH1c + 5E11_VL2b
CAR-J2 EC50 [ng/mL] (PGLALA-CAR-J activation, L363 target cells) (human GPRC5D [6]): 3.7 ng/mL | EC50 values of CAR-J activation (human GPRC5D [4]): 3.7 ng/mL | EC50 (human GPRC5D [5]): 0.006 µg/mL and 0.04 nM

B5: P1AE5730 (antibody, V domains shown)
VH: ELQLLESGGGLVQPGGSLRLSCAASGFTFSKYAMAWVRQAPGKGLEWVASISTGGVNTYYADSVKGRFTISRDNAKNTLYLQMNSLRAEDTAVYYCATHTGDYFDYWGQGTMVTVSS
VL: DIQMTQSPSSLSASVGDRVTITCRASQSVSISGINLMNWYQQKPGKQPKLLIYHASILASGVPSRFSGSGSGTDFTLTISSLQPEDFATYYCQQTRESPLTFGQGTRLEIK
notes: Humanized 5E11 IgG; PGLALA Fc implied by the CAR-J assay; also called 5E11_VH1d + 5E11_VL3a
CAR-J2 EC50 [ng/mL] (PGLALA-CAR-J activation, L363 target cells) (human GPRC5D [6]): 3.5 ng/mL | EC50 values of CAR-J activation (human GPRC5D [4]): 3.5 ng/mL | EC50 (human GPRC5D [5]): 0.008 µg/mL and 0.05 nM

B6: P1AE5718 (antibody, V domains shown)
VH: ELQLLESGGGLVQPGGSLRLSCAASGFTFSKYAMAWVRQAPGKGLEWVASISTGGVNTYYRDSVKARFTISRDNAKNTLYLQMNSLRAEDTAVYYCATHTGDYFDYWGQGTMVTVSS
VL: DIQMTQSPSSLSASVGDRVTITCRASQSVSISGINLMNWYQQKPGKQPKLLIYHASILASGVPSRFSGSGSGTDFTLTISSLQPEDFATYYCQQTRESPLTFGQGTRLEIK
notes: Humanized 5E11 IgG; PGLALA Fc implied by the CAR-J assay; also called 5E11_VH1b + 5E11_VL3a
CAR-J2 EC50 [ng/mL] (PGLALA-CAR-J activation, L363 target cells) (human GPRC5D [6]): 105 ng/mL | EC50 values of CAR-J activation (human GPRC5D [4]): 105 ng/mL | EC50 (human GPRC5D [5]): 0.0121 µg/mL and 0.08 nM

B7: 5E11_P1AE5728 (antibody, V domains shown)
VH: ELQLLESGGGLVQPGGSLRLSCAASGFTFSKYAMAWVRQAPGKGLEWVASISTGGVNTYYADSVKGRFTISRDNAKNTLYLQMNSLRAEDTAVYYCATHTGDYFDYWGQGTMVTVSS
VL: EIVLTQSPGTLSLSPGERATLSCRASQSVSISGINLMNWYQQKPGQQPRLLIYHASILASGIPDRFSGSGSGTDFTLTISRLEPEDFAVYYCQQTRESPLTFGQGTRLEIK
notes: Humanized 5E11 IgG; PGLALA Fc implied by the CAR-J assay; also called 5E11_VH1d + 5E11_VL2a
CAR-J2 EC50 [ng/mL] (PGLALA-CAR-J activation, L363 target cells) (human GPRC5D [6]): 5.6 ng/mL | EC50 values of CAR-J activation (human GPRC5D [4]): 5.6 ng/mL | EC50 (human GPRC5D [5]): 0.0079 µg/mL and 0.05 nM

B8: B72-TCB (bispecific antibody, human IgG1, kappa, L234A L235A)
heavy 1: not shown
light 1: EVQLVESGGGLVQPGGSLRLSCAASGFTFNTYAMNWVRQAPGKGLEWVARIRSKYNNYATYYAASVKGRFTISRDDSKNSLYLQMNSLKTEDTAVYYCARHGNFGNSYVSWFAYWGQGTLVTVSSASVAAPSVFIFPPSDEQLKSGTASVVCLLNNFYPREAKVQWKVDNALQSGNSQESVTEQDSKDSTYSLSSTLTLSKADYEKHKVYACEVTHQGLSSPVTKSFNRGEC
heavy 2: QVQLVQSGAEVKKPGASVKVSCKASGYSFTGYTMNWVRQAPGQGLEWMGLINPYNSDTNYAQKLQGRVTMTTDTSTSTAYMELRSLRSDDTAVYYCARVALRVALDYWGQGTLVTVSSASTKGPSVFPLAPSSKSTSGGTAALGCLVEDYFPEPVTVSWNSGALTSGVHTFPAVLQSSGLYSLSSVVTVPSSSLGTQTYICNVNHKPSNTKVDEKVEPKSCDKTHTCPPCPAPEAAGGPSVFLFPPKPKDTLMISRTPEVTCVVVDVSHEDPEVKFNWYVDGVEVHNAKTKPREEQYNSTYRVVSVLTVLHQDWLNGKEYKCKVSNKALGAPIEKTISKAKGQPREPQVCTLPPSRDELTKNQVSLSCAVKGFYPSDIAVEWESNGQPENNYKTTPPVLDSDGSFFLVSKLTVDKSRWQQGNVFSCSVMHEALHNHYTQKSLSLSPGK
light 2: DIQMTQSPSSLSASVGDRVTITCKASQNVATHVGWYQQKPGKAPKRLIYSASYRYSGVPSRFSGSGSGTEFTLTISNLQPEDFATYYCQQYNRYPYTFGQGTKLEIKRTVAAPSVFIFPPSDRKLKSGTASVVCLLNNFYPREAKVQWKVDNALQSGNSQESVTEQDSKDSTYSLSSTLTLSKADYEKHKVYACEVTHQGLSSPVTKSFNRGEC
EC50 in vitro killing assay, AMO-1 (human GPRC5D [7]): 109 pM | EC50 in vitro killing assay, EJM (human GPRC5D [7]): 60 pM | EC50 in vitro killing assay, L363 (human GPRC5D [7]): 58 pM | EC50 in vitro killing assay, MOLP-2 (human GPRC5D [7]): 124 pM | EC50 in vitro killing assay, NCI-H929 (human GPRC5D [7]): 58 pM | EC50 in vitro killing assay, OPM-2 (human GPRC5D [7]): 171 pM | EC50 in vitro killing assay, RPMI (human GPRC5D [7]): 193 pM | EC50 (pM), TCB-mediated tumor cell lysis, AMO-1 (human GPRC5D [8]): 79.9 pM | EC50 (pM), TCB-mediated tumor cell lysis, IM-9 (human GPRC5D [8]): 198 pM | EC50 (pM), TCB-mediated tumor cell lysis, LP-1 (human GPRC5D [8]): 49 pM | EC50 (pM), TCB-mediated tumor cell lysis, NCI-H929 (human GPRC5D [8]): 26.9 pM | AUC, TCB-mediated tumor cell lysis, AMO-1 (human GPRC5D [9]): 5.45e+07 | AUC, TCB-mediated tumor cell lysis, IM-9 (human GPRC5D [9]): 8.6e+06 | AUC, TCB-mediated tumor cell lysis, LP-1 (human GPRC5D [9]): 1.15e+07 | AUC, TCB-mediated tumor cell lysis, NCI-H929 (human GPRC5D [9]): 1.09e+07
